In FireProtDB (doi:10.1002/cbic.201402128):
“And” between values parts separate entries of the source, which are not always exact repeats. Equal entries are not always repeated.

Details: Sphingobium indicum (strain DSM 16413 / CCM 7287 / MTCC 6362 / UT26 / NBRC 101211 / UT26S); pH 7.5; Thermal; fluorescence; Na-Hepes 50 mM; reversible: no; whole UniProt chain shown

B1: Haloalkane dehalogenase wild type, D4Z2G1 (protein)
chain: MSLGAKPFGEKKFIEIKGRRMAYIDEGTGDPILFQHGNPTSSYLWRNIMPHCAGLGRLIACDLIGMGDSDKLDPSGPERYAYAEHRDYLDALWEALDLGDRVVLVVHDWGSALGFDWARRHRERVQGIAYMEAIAMPIEWADFPEQDRDLFQAFRSQAGEELVLQDNVFVEQVLPGLILRPLSEAEMAAYREPFLAAGEARRPTLSWPRQIPIAGTPADVVAIARDYAGWLSESPIPKLFINAEPGALTTGRMRDFCRTWPNQTEITVAGAHFIQEDSPDEIGAAIAAFVRRLRPA
Tm: 51 °C and 49 °C
